Measured values published in publication PMC8325321.

Molecular target: recombinant importin α2-His (Laodelphax striatellus)
Assay: MST

Question: How did the Kd turn out when NP-GST (natural protein) was run?
Answer: 9.1 µM
